In publication PMC7515726 (Nucleic Acids Research, 2020):

Biological target: FLAG-hH2A.D wild-type nucleosome, 147 bp 601 DNA (ELYS pulldowns) (human, UniProt P20671;P62807;Q71DI3;P62805)
Assay: pull-down

binding result: binds
B1: MBP-His6-TEV-ELYS^C, C-terminal fragment of human ELYS (2157-2275) (domain or fragment)
chain: SSQFVISPPALRSRQKNTSNKNKLEDELKDDAQSVETLGKPKAKRIRTSKTKQASKNTEKESAWSPPPIEIRLISPLASPADGVKSKPRKTTEVTGTGLGRNRKKLSSYPKQILRRKML
